Results from the supplement of paper PMC10126150.
± gives the standard deviation of the averaged measurements.
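Also: ATP exposure 15 min at 22 °C before imaging.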

What follows are sequences tested on ATP (assay: switch fluorescence ratio, 500 uM ATP over buffer (Cy3 cluster intensity, sum of 5 cycles each) (fold (ratio)); higher = stronger signal-on switching upon ATP binding; sequences stand for … in TCGTCGGCAGCGTCAGATGTGTATAAGAGACAGTTTTTTTTTTTTTTTTTTTTTTTTT…TC). Conditions: aptamer strand: ATP DNA aptamer (quencher-CACCTGGGGGAGTATTGCGGAGGAAGG + anchor), 100 nM annealed; ATP concentration: 500 uM.
Method in brief: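 Imaging in selection buffer was followed by imaging after 15 min with 500 uM ATP at 22 °C, for Cy3-labelled switching-strand clusters annealed to 100 nM quencher-labelled ATP aptamer on a modified Illumina MiSeq flow-cell. Five of these buffer/ATP cycles ran, separated by NaOH stripping and re-annealing. The fluorescence ratio per cluster is summed target-cycle over summed buffer-cycle Cy3 intensity, averaged per switch-domain sequence; clusters outside 100-1000 RFU were removed.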
TCATTGTGAG was tested, and the switch fluorescence ratio was 1 ± 0.038.
TCATTGTTGG showed a switch fluorescence ratio of 1 ± 0.023.
Work on TCATTTGGTT yielded a switch fluorescence ratio of 0.988 ± 0.042.
Work on TCATTTGTGC yielded a switch fluorescence ratio of 1.01 ± 0.039.
For TCATTTTGGG, the switch fluorescence ratio was 0.999 ± 0.028.
Sequence TCCAAAAACG has a switch fluorescence ratio of 1.15 ± 0.21.
TCCAAACCAG was tested, and the switch fluorescence ratio was 1.06 ± 0.012.
TCCAAAGGGC showed a switch fluorescence ratio of 1.07 ± 0.024.
Work on TCCAAATTAC yielded a switch fluorescence ratio of 2.08 ± 0.064.
TCCAAGACGG showed a switch fluorescence ratio of 1.02 ± 0.046.
TCCAAGCTGG showed a switch fluorescence ratio of 1.03 ± 0.025.
In the case of TCCAAGGTCC, the switch fluorescence ratio is reported as 1.04 ± 0.042.
Work on TCCAGAAGGC yielded a switch fluorescence ratio of 1.09 ± 0.13.
With TCCAGAAGTT the switch fluorescence ratio was 1.07 ± 0.057.
In the case of TCCAGACAGT, the switch fluorescence ratio is reported as 0.984 ± 0.026.
TCCAGAGGGA showed a switch fluorescence ratio of 1.28 ± 0.23.
In the case of TCCAGCTGTG, the switch fluorescence ratio is reported as 0.9916 ± 0.0022.
In the case of TCCAGGACCA, the switch fluorescence ratio is reported as 1.03 ± 0.042.
TCCAGGCGAA gave a switch fluorescence ratio of 1.08 ± 0.038.
TCCAGGGCTT showed a switch fluorescence ratio of 1.06 ± 0.013.
With TCCAGGGGGC the switch fluorescence ratio was 1.18 ± 0.16.
With TCCATAAGGG the switch fluorescence ratio was 1.01 ± 0.023.
For TCCATGGGTG, the switch fluorescence ratio was 1.52 ± 0.033.
In the case of TCCATGTTTT, the switch fluorescence ratio is reported as 1.14 ± 0.22.
In the case of TCCATTGAAC, the switch fluorescence ratio is reported as 1.017 ± 0.0026.
TCCATTTTGG gave a switch fluorescence ratio of 0.998 ± 0.039.
Work on TCCCACTGCT yielded a switch fluorescence ratio of 1.03 ± 0.034.
TCCCATCTGT showed a switch fluorescence ratio of 0.984 ± 0.031.
Sequence TCCCCGACGT has a switch fluorescence ratio of 1.53 ± 0.22.
TCCCCGCGCT was tested, and the switch fluorescence ratio was 1.25 ± 0.37.
TCCCGAAGAT was tested, and the switch fluorescence ratio was 1.03 ± 0.023.
Sequence TCCCGCGGCT has a switch fluorescence ratio of 1.08 ± 0.045.
TCCCGCTGGG gave a switch fluorescence ratio of 1.17 ± 0.22.
Sequence TCCCGGTCCG has a switch fluorescence ratio of 1 ± 0.027.
With TCCCTCCCCT the switch fluorescence ratio was 1.25 ± 0.056.
In the case of TCCCTGGTAT, the switch fluorescence ratio is reported as 1.04 ± 0.014.
Work on TCCCTGTTGC yielded a switch fluorescence ratio of 1.09 ± 0.045.
TCCCTTTGGC gave a switch fluorescence ratio of 1.01 ± 0.04.
TCCGAAAAAG gave a switch fluorescence ratio of 1.33 ± 0.44.
TCCGAAATCA showed a switch fluorescence ratio of 1.6 ± 0.48.
For TCCGAAGGAA, the switch fluorescence ratio was 1.11 ± 0.042.
TCCGAATGCG showed a switch fluorescence ratio of 1.11 ± 0.0041.
TCCGACGTAG showed a switch fluorescence ratio of 1.19 ± 0.31.
TCCGAGGCCA gave a switch fluorescence ratio of 3.91 ± 3.2.
TCCGAGGCGG showed a switch fluorescence ratio of 2.131 ± 0.017.
TCCGAGGGCT was tested, and the switch fluorescence ratio was 1.59 ± 0.084.
In the case of TCCGAGTGAG, the switch fluorescence ratio is reported as 1.13 ± 0.058.
TCCGATTGAA gave a switch fluorescence ratio of 1.08 ± 0.011.
With TCCGCAGAG the switch fluorescence ratio was 6.2 ± 0.49.
In the case of TCCGCTTGTA, the switch fluorescence ratio is reported as 1.39 ± 0.11.
Work on TCCGCTTTTT yielded a switch fluorescence ratio of 1.1 ± 0.15.
For TCCGGAGGGA, the switch fluorescence ratio was 1.04 ± 0.089.
Sequence TCCGGCGGTG has a switch fluorescence ratio of 1.03 ± 0.027.
In the case of TCCGGCTTTG, the switch fluorescence ratio is reported as 0.953 ± 0.075.
In the case of TCCGGGAAAT, the switch fluorescence ratio is reported as 2.88 ± 0.66.
In the case of TCCGGGAGGG, the switch fluorescence ratio is reported as 1.02 ± 0.053.
TCCGGGATCC was tested, and the switch fluorescence ratio was 1.25 ± 0.04.
For TCCGGGCCTT, the switch fluorescence ratio was 1.02 ± 0.09.
TCCGGGGGCA gave a switch fluorescence ratio of 1.59 ± 0.027.
For TCCGGGGTGG, the switch fluorescence ratio was 1.022 ± 0.0097.
Sequence TCCGGTTCCT has a switch fluorescence ratio of 1.07 ± 0.036.
For TCCGGTTTTT, the switch fluorescence ratio was 1.07 ± 0.16.
For TCCGTATATT, the switch fluorescence ratio was 1.103 ± 0.0024.
TCCGTGAGAT showed a switch fluorescence ratio of 1.44 ± 0.047.
In the case of TCCGTGTGTG, the switch fluorescence ratio is reported as 0.989 ± 0.0075.
TCCTCAGCGT showed a switch fluorescence ratio of 3 ± 1.
For TCCTGATGTT, the switch fluorescence ratio was 0.982 ± 0.046.
For TCCTGATTGA, the switch fluorescence ratio was 0.984 ± 0.063.
TCCTGTGAAC showed a switch fluorescence ratio of 1.04 ± 0.046.
Work on TCCTGTGGGT yielded a switch fluorescence ratio of 0.99 ± 0.036.
TCCTGTTTTC was tested, and the switch fluorescence ratio was 0.987 ± 0.021.
With TCCTTATAGG the switch fluorescence ratio was 1 ± 0.044.
For TCCTTCGGTT, the switch fluorescence ratio was 1.393 ± 0.0023.
With TCCTTGTTTT the switch fluorescence ratio was 1 ± 0.028.
With TCCTTTAAAT the switch fluorescence ratio was 1.13 ± 0.0032.
TCCTTTGGTT showed a switch fluorescence ratio of 0.9865 ± 0.0034.
In the case of TCCTTTTTTA, the switch fluorescence ratio is reported as 1.01 ± 0.015.
In the case of TCGAAAAAGG, the switch fluorescence ratio is reported as 1.0045 ± 8.5e-06.
TCGAAAAATT gave a switch fluorescence ratio of 0.975 ± 0.048.
Sequence TCGAAAATAT has a switch fluorescence ratio of 1.5 ± 1.
TCGAAAGTTA showed a switch fluorescence ratio of 1.04 ± 0.022.
Sequence TCGAAGATGT has a switch fluorescence ratio of 0.996 ± 0.019.
In the case of TCGAAGGAAT, the switch fluorescence ratio is reported as 1.24 ± 0.037.
TCGAAGGGCT was tested, and the switch fluorescence ratio was 1.016 ± 0.01.
In the case of TCGAAGGGGA, the switch fluorescence ratio is reported as 0.971 ± 0.035.
For TCGAATAATT, the switch fluorescence ratio was 1 ± 0.041.
Sequence TCGAATAGAT has a switch fluorescence ratio of 0.958 ± 0.04.
TCGAATATTT showed a switch fluorescence ratio of 1.02 ± 0.073.
In the case of TCGACGGGGA, the switch fluorescence ratio is reported as 1.1 ± 0.047.
Work on TCGAGATGG yielded a switch fluorescence ratio of 0.97289 ± 7.7e-05.
For TCGAGATTAT, the switch fluorescence ratio was 1.01 ± 0.027.
TCGAGCCTTT was tested, and the switch fluorescence ratio was 0.9909 ± 0.0014.
TCGAGGGGAA showed a switch fluorescence ratio of 1.13 ± 0.15.
TCGAGGGGTT showed a switch fluorescence ratio of 0.993 ± 0.011.
TCGAGGTTGC gave a switch fluorescence ratio of 0.993 ± 0.025.
TCGAGTTCAG was tested, and the switch fluorescence ratio was 0.99 ± 0.021.
TCGATAATTA was tested, and the switch fluorescence ratio was 0.97 ± 0.09.
Work on TCGATACATG yielded a switch fluorescence ratio of 0.993 ± 0.034.
In the case of TCGATAGTTG, the switch fluorescence ratio is reported as 0.961 ± 0.054.
With TCGATATATG the switch fluorescence ratio was 1 ± 0.028.
